B1: full-length PKR with N-terminal split Venus V1 tag [human] / truncated PKR kinase domain with N-terminal split Venus V2 tag [human] (parent)
chain 1: MAGDLSAGFFMEELNTYRQKQGVVLKYQELPNSGPPHDRRFTFQVIIDGREFPEGEGRSKKEAKNAAAKLAVEILNKEKKAVSPLLLTTTNSSEGLSMGNYIGLINRIAQKKRLTVNYEQCASGVHGPEGFHYKCKMGQKEYSIGTGSTKQEAKQLAAKLAYLQILSEETSVKSDYLSSGSFATTCESQSNSLVTSTLASESSSEGDFSADTSEINSNSDSLNSSSLLMNGLRNNQRKAKRSLAPRFDLPDMKETKYTVDKRFGMDFKEIELIGSGGFGQVFKAKHRIDGKTYVIKRVKYNNEKAEREVKALAKLDHVNIVHYNGCWDGFDYDPETSDDSLESSDYDPENSKNSSRSKTKCLFIQMEFCDKGTLEQWIEKRRGEKLDKVLALELFEQITKGVDYIHSKKLIHRDLKPSNIFLVDTKQVKIGDFGLVTSLKNDGKRTRSKGTLRYMSPEQISSQDYGKEVDLYALGLILAELLHVCDTAFETSKFFTDLRDGIISDIFDKKEKTLLQKLLSKKPEDRPNTSEILRTLTVWKKSPEKNERHTC
chain 2: TVDKRFGMDFKEIELIGSGGFGQVFKAKHRIDGKTYVIKRVKYNNEKAEREVKALAKLDHVNIVHYNGCWDGFDYDPETSDDSLESSDYDPENSKNSSRSKTKCLFIQMEFCDKGTLEQWIEKRRGEKLDKVLALELFEQITKGVDYIHSKKLIHRDLKPSNIFLVDTKQVKIGDFGLVTSLKNDGKRTRSKGTLRYMSPEQISSQDYGKEVDLYALGLILAELLHVCDTAFETSKFFTDLRDGIISDIFDKKEKTLLQKLLSKKPEDRPNTSEILRTLTVWKKSPEKNERHTC

Variants of: B1
Experiment: split Venus fluorescence complementation in HEK293 cells
[1] = 20 ng/well of each construct, 5 μM of 2AP, n = 3, read off a plot
[2] = 20 ng/well of each construct, n = 7, read off a plot

Variant | response [1] | response [2] | response (20 ng/well of full-length PKR and 30 ng/well of the truncated KD, n = 7, read off a plot)
chain 1 MAGDLSAGFFMEELNTYRQKQGVVLKYQELPNSGPPRDRRFTFQVIIDGREFPEGEGRSKKEAKNAAAKLAVEILNKEKKAVSPLLLTTTNSSEGLSMGNYIGLINRIAQKKRLTVNYEQCASGVHGPEGFHYKCKMGQKEYSIGTGSTKQEAKQLAAKLAYLQILSEETSVKSDYLSSGSFATTCESQSNSLVTSTLASESSSEGDFSADTSEINSNSDSLNSSSLLMNGLRNNQRKAKRSLAPRFDLPDMKETKYTVDKRFGMDFKEIELIGSGGFGQVFKAKHRIDGKTYVIKRVKYNNEKAEREVKALAKLDHVNIVHYNGCWDGFDYDPETSDDSLESSDYDPENSKNSSRSKTKCLFIQMEFCDKGTLEQWIEKRRGEKLDKVLALELFEQITKGVDYIHSKKLIHRDLKPSNIFLVDTKQVKIGDFGLVTSLKNDGKRTRSKGTLRYMSPEQISSQDYGKEVDLYALGLILAELLHVCDTAFETSKFFTDLRDGIISDIFDKKEKTLLQKLLSKKPEDRPNTSEILRTLTVWKKSPEKNERHTC [chain 1 H37R] | 2.7 | 2.5 | 
chain 1 MAGDLSAGFFMEELNTYRQKQGVVLKYQELPNAGPPRDRRFAFQVIIDGREFPEGEGRSKKEAKNAAAKLAVEILNKEKKAVSPLLLTTTNSSEGLSMGNYIGLINRIAQKKRLTVNYEQCASGVHGPEGFHYKCKMGQKEYSIGTGSTKQEAKQLAAKLAYLQILSEETSVKSDYLSSGSFATTCESQSNSLVTSTLASESSSEGDFSADTSEINSNSDSLNSSSLLMNGLRNNQRKAKRSLAPRFDLPDMKETKYTVDKRFGMDFKEIELIGSGGFGQVFKAKHRIDGKTYVIKRVKYNNEKAEREVKALAKLDHVNIVHYNGCWDGFDYDPETSDDSLESSDYDPENSKNSSRSKTKCLFIQMEFCDKGTLEQWIEKRRGEKLDKVLALELFEQITKGVDYIHSKKLIHRDLKPSNIFLVDTKQVKIGDFGLVTSLKNDGKRTRSKGTLRYMSPEQISSQDYGKEVDLYALGLILAELLHVCDTAFETSKFFTDLRDGIISDIFDKKEKTLLQKLLSKKPEDRPNTSEILRTLTVWKKSPEKNERHTC [chain 1 S33A H37R T42A] | 4.7 | 3 | 
chain 1 MAGDLSAGFFMEELNTYRQKQGVVLKYQELPNEGPPRDRRFEFQVIIDGREFPEGEGRSKKEAKNAAAKLAVEILNKEKKAVSPLLLTTTNSSEGLSMGNYIGLINRIAQKKRLTVNYEQCASGVHGPEGFHYKCKMGQKEYSIGTGSTKQEAKQLAAKLAYLQILSEETSVKSDYLSSGSFATTCESQSNSLVTSTLASESSSEGDFSADTSEINSNSDSLNSSSLLMNGLRNNQRKAKRSLAPRFDLPDMKETKYTVDKRFGMDFKEIELIGSGGFGQVFKAKHRIDGKTYVIKRVKYNNEKAEREVKALAKLDHVNIVHYNGCWDGFDYDPETSDDSLESSDYDPENSKNSSRSKTKCLFIQMEFCDKGTLEQWIEKRRGEKLDKVLALELFEQITKGVDYIHSKKLIHRDLKPSNIFLVDTKQVKIGDFGLVTSLKNDGKRTRSKGTLRYMSPEQISSQDYGKEVDLYALGLILAELLHVCDTAFETSKFFTDLRDGIISDIFDKKEKTLLQKLLSKKPEDRPNTSEILRTLTVWKKSPEKNERHTC [chain 1 S33E H37R T42E] | 2.9 | 2.5 | 
chain 2 TVDKRFGMDFKEIELIGSGGFGQVFKAKHRIDGKTYVIRRVKYNNEKAEREVKALAKLDHVNIVHYNGCWDGFDYDPETSDDSLESSDYDPENSKNSSRSKTKCLFIQMEFCDKGTLEQWIEKRRGEKLDKVLALELFEQITKGVDYIHSKKLIHRDLKPSNIFLVDTKQVKIGDFGLVTSLKNDGKRTRSKGTLRYMSPEQISSQDYGKEVDLYALGLILAELLHVCDTAFETSKFFTDLRDGIISDIFDKKEKTLLQKLLSKKPEDRPNTSEILRTLTVWKKSPEKNERHTC [chain 2 K39R] |  |  | 4.2

From PMC5345052, “Auto-phosphorylation Represses Protein Kinase R Activity” (Scientific Reports, 2017)
